Article PMC5175346

Columns and labels:
Experiment in all cases: fluorescence anisotropy
PriA K328A = PriA K328A (Escherichia coli, UniProt P17888 1-732, K328A)
PriA W333A = PriA W333A (Escherichia coli, UniProt P17888 1-732, W333A)
PriA Q330A = PriA Q330A (Escherichia coli, UniProt P17888 1-732, Q330A)
PriA Q329A = PriA Q329A (Escherichia coli, UniProt P17888 1-732, Q329A)
PriA R334A = PriA R334A (Escherichia coli, UniProt P17888 1-732, R334A)
PriA Y335A = PriA Y335A (Escherichia coli, UniProt P17888 1-732, Y335A)
PriA wt = PriA wt (Escherichia coli, UniProt P17888 1-732)

Measured: binding result

B1: two-stranded fork, structure #1 (1b-98/3L-98) (structured_DNA)
DNA 1: GCAAGCCTTCTACAGGTCGACCGTCCATGGCGACTCGAGACCGCAATACGGATAAGGGCTGAGCACGCCGACGAACATTCACCACGCCAGACCACGTA
DNA 2: GACTATCTACGTCCGAGGCTCGCGCCGCAGACTCATTTAGCCCTTATCCGTATTGCGGTCTCGAGTCGCCATGGACGGTCGACCTGTAGAAGGCTTGC
binds: PriA K328A | PriA W333A | PriA Q330A | PriA Q329A | PriA R334A | PriA Y335A | PriA wt
